The record followed here is patent publication US20240301063A1 (SHANDONG NEW TIME PHARMACEUTICAL, published 2024).

For experiment [1], the target named is T1, cynomolgus monkey CD3 on cynomolgus monkey T cells (cynomolgus monkey, UniProt Q95LI5 22-198; Q95LI8 22-171; Q95LI7 23-181).
T1 construct: Native CD3 on T cells
Nature of the experiment: flow cytometry on cynomolgus monkey T cells.
Protocol: Centrifuge to remove supernatant, wash the plate twice with 1% DPBS, add 100 μl 1% DPBS to each well for resuspension, and detect the signal intensity by flow cytometry.

The target in experiment [2] is T2, human BCMA on BCMA positive cells (human, UniProt Q02223 1-184).
T2 sequence (looked up): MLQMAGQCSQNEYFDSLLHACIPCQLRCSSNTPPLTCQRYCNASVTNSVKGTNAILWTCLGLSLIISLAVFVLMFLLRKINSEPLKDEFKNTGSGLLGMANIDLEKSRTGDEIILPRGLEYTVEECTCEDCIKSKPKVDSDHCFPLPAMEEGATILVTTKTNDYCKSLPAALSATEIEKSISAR
The experiment is described as follows: cell-based or functional assay.

T1 sequence (Q95LI5 22-198 limits assumed, chain 1 of 3): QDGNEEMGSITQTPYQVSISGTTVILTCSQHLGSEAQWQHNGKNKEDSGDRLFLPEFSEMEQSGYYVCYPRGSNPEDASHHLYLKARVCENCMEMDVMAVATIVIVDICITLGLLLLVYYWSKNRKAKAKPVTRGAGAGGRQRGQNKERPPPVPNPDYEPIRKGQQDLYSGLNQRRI
T1 sequence (Q95LI8 22-171 limits assumed, chain 2 of 3): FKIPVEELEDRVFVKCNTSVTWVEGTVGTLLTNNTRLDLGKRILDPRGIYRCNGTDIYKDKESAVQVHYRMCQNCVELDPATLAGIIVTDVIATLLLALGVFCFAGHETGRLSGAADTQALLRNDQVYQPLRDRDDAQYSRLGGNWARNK
T1 sequence (Q95LI7 23-181 limits assumed, chain 3 of 3): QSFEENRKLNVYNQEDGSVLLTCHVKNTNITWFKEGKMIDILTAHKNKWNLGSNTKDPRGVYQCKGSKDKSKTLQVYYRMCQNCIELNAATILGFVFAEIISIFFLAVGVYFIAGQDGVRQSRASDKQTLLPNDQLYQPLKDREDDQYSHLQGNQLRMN

B1: bispecific antibody AP163 (bispecific antibody)
chain: QVQLVQSGAEVKKPGSSVKVSCKASGGTFSNYWMHWVRQAPGQGLEWMGATYRGHSDTYYNQKFKGRVTITADKSTSTAYMELSSLRSEDTAVYYCARGAIYDGYDVLDNWGQGTLVTVSSGGGGSGGGGSGGGGSDIQMTQSPSSLSASVGDRVTITCSASQDISNYLNWYQQKPGKAPKLLIYYTSNLHSGVPSRFSGSGSGTDFTLTISSLQPEDFATYYCQQYRKLPWTFGQGTKLEIKGGGGGGSGGGGSGGGGSSSSSKAPPPSEVQLLESGGGLVQPGGSLKLSCAASGFTFNTYAMNWVRQAPGKGLEWVARIRSKYNNYATYYADSVKDRFTISRDDSKNTAYLQMNNLKTEDTAVYYCVRHGNFGNSYVSWFAYWGQGTLVTVSSGGGGSGGGGSGGGGSELVVTQEPSLTVSPGGTVTLTCRSSTGAVTTSNYANWVQQKPGQAPRGLIGGTNKRAPGTPARFSGSLLGGKAALTLSGVQPEDEAEYYCALWYSNLWVFGGGTKLTVLDKTHTCPPCPAPEAAGGPSVFLFPPKPKDQLMISRTPEVTCVVVDVSHEDPEVKFNWYVDGVEVHNAKTKPREEQYASTYRVVSVLTVLHQDWLNGKEYKCKVSNKALPASIEKTISKAKGQPREPQVYTLPPSRDELTKNQVSLTCLVKGFYPSDIAVEWESNGQPENNYKTTPPVLDSDGSFFLYSKLTVDKSRWQQGNVFSCSVLHEALHNHYTQKSLSLSPG
notes: human IgG1 Fc with L234A, L235A, T250Q, N297A, P331S, M428L and K447 deleted (EU); also called anti-BCMA×CD3 bispecific antibody
Regarding B1, in experiment [1], the binding result is listed as “binds”. In experiment [2], the “EC50 of activation of NFAT-Jurkat reporter cells (luciferase) in the presence of H929 cells” value amounted to 3.16 ng/mL, the “EC50 of cynomolgus monkey T cells killing NCI-H929 tumor cells mediated by AP163” value was found to be 0.278 pM and the “EC50 of human T cells killing NCI-H929 tumor cells mediated by AP163” value was determined as 0.239 pM.
